Data on one molecule can be found in patent US12187807B2, “Antibody molecules to C5AR1 and uses thereof” (Visterra, Inc., priority 2020, dated 2025).

In assay [1] the target is T1, C5aR1 mutants (N-terminus, ECL1, ECL2, ECL3) (Homo sapiens, UniProt P21730, K279N/Y11A).
T1 sequence (P21730 with tags, fused parts or gaps Y11A/K279N): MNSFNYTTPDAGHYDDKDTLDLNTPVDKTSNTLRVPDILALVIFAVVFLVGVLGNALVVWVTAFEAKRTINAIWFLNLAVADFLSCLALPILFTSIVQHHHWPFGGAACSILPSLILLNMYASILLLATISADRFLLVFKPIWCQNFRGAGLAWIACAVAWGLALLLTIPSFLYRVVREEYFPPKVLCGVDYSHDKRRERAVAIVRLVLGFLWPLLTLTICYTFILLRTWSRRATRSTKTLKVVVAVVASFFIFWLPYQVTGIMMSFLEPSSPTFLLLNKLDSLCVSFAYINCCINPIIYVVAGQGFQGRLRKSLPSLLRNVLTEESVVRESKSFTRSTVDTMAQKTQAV
Description: Alanine scanning / mutagenesis epitope mapping of C5aR1. Type of assay: binding. The settings on record: Y11A. In short, it runs like this: (§1)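 C5aR1 variants carried single alanine substitutions or introduced N-glycosylation sites across the N-terminus, ECL1, ECL2 and ECL3. Binding of individual monoclonal antibody clones to each mutant was assessed to map core epitopes. Sulfation of tyrosines 11 and 14 was considered for the site I binders.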

The target of assay [2] is T2, C5aR1 mutants (N-terminus, ECL1, ECL2, ECL3) (Homo sapiens, UniProt P21730, D10A/K279N).
T2 sequence (P21730 with tags, fused parts or gaps D10A/K279N): T1 sequence (P21730 with tags, fused parts or gaps Y11A/K279N) with D10A, A11Y
The description is as above. The class given is binding. The settings on record: D10A. In a few lines:
as §1

Substitutions are numbered along the chain they refer to.

B1: clone 583: anti-C5aR1 Site I antibody; VH SEQ ID NO: 536, VL SEQ ID NO: 595 (antibody, V domains shown)
VH: EVQLVESGGGLVKPGGSLKLSCAASGFTFNAYAMSWVRQTPEKRLEWVASISTGGNTYCPDSVKDRFTVSRDNVRNILYLQMSSLRSEDTAMYYCTRGYQRFSGFAYWGQGTLVTVS
VL: DVVMTQTPLSPPVSLGYQASISCRSSQSLVHSNGNTYLNWYLQKPGQSPKLLIYKVSNRLSGVPDRFSGSGSGTDFTLKISRVETEDLGVYFCSQSTHVPYTFGGGTKLEIK
As for B1, the “binding to C5aR1 mutant” value was “abolishes binding” in assay [1] and “moderately reduce binding” in assay [2].
